Assay results published in US20190106487A1 (Sanofi, published 2019).
Positions count from the first letter of the chain named.

B1: P013.S.02.B.B02 (antibody, V domains shown)
VH: LAQSGGGAEGGLVKPGGSLELCCEASGFSLSSSYWICWVRQAPGKGLEWIGCIYTGSSGNTYYASWVNGRFTLSRDIDRSTGCLQLNSLTAADTAMYYCARDANSHYMMNLWGQGTLVTVSS
VL: ALVMTQTPSPVSAAVGGTVTINCQASEDIYSNLAWFQQKPGQPPKLLIYDASTLASGVPSRFSGSGSGTEFTLTISGLQSDDAATYYCLGVYTYISADGTLVYNAFGGGTEVVVR
notes: rabbit monoclonal antibody; also called P013.A.00045.H10
B2: P013.S.02.B.A05 (antibody, V domains shown)
VH: QEQLVESGGGLVQPEGSLTLTCQASGFTFSSYYVICWVRQAPGKGLEWIACIGTGDGLTYYASWAKGRFTISKTSSTTVTLQMTSLTAADTATYFCARDRYATVSGILNLWGPGTLVTVSS
VL: DVVMTQTPASVEAAVGGTVTIKCQASQNIYSNCAWYQQKLGQRPKLLIYYVSTLESGVPSRFEGSGYGTEFTLTISDLQSADAATYYCQYTYDSSSSTSWAFGGGTEVVVK
notes: rabbit monoclonal antibody; also called P013.A.00031.D11
B3: P013.S.02.B.B03 (antibody, V domains shown)
VH: QEQLEESGGDLVKPEGSLTLTCTASGFSFSSNYWICWVRQAPGKGLELIACIYTSTGNTWYASWAKGRFTISKTSSTTVTLQMTSLTVADTATYFCARDLLVVTSFNLWGQGTLVTVSS
VL: ALVMTQTPSPVSAAVGGTVTINCQASEDIYSNLAWFQQKPGQPPKLLIYGASTLASGVPSRFSGSGSGTEFTLTISGVQSDDAATYYCLGVCTDISTDDLYNAFGGGTELVVK
notes: rabbit monoclonal antibody; also called P013.A.00045.F11
B4: P013.S.02.B.D01 (antibody, V domains shown)
VH: LEQSGGGAEGGLVKPGGSLELCCKASGFSLSSNYWMCWVRQAPGKGLEWIGCIYAGSSDSTYYASWVNGRFTLSRDIDQSTGCLQLNSLTAADTAMYYCASPGYGGYGYYGLWGQGTLVTVSS
VL: B3 VL with G50D, V78L, C92Y, D94Y, T97P, D99G, L100T, Y101D, L110V
notes: rabbit monoclonal antibody; also called P013.A.00141.G02
B5: P013.S.02.B.F04 (antibody, V domains shown)
VH: B3 VH with E5V, L48W, G57D, N58T, W60Y, A62P, S63N, V88A
VL: B3 VL with T97A, A103T, L110V
notes: rabbit monoclonal antibody; also called P013.A.00109.B02
B6: P013.S.02.B.D02 (antibody, V domains shown)
VH: QSLEESGGDLVKPGASLKLSCTASGVSFSSAYWMCWVRQAPGKGLEWIACIYAGSSGSTYYASWAKGRFTISKTSSTTVTLQMTSLTAADTATYFCARHAAWFELDLWGPGTLVTVSS
VL: ALVMTQTPSPVSAAVGGTVTINCQASQNIASAYLSWYQQKPGQPPKLLIYAASTLTDGVPSRFKGSGSVTEFTLTISGVQSDDAATYYCAGYKSYTDDEFAFGGGTEVVVK
notes: rabbit monoclonal antibody; also called P013.A.00086.F05

Tests used:
[1] = biological target: T1, mIL1RAcP-Fc (murine, UniProt Q61730 21-359); assay: ELISA, primary supernatant, coated mu-IL-1RAcP-Fc
T1 construct: also called P013_04; P013-04
T1 sequence (looked up): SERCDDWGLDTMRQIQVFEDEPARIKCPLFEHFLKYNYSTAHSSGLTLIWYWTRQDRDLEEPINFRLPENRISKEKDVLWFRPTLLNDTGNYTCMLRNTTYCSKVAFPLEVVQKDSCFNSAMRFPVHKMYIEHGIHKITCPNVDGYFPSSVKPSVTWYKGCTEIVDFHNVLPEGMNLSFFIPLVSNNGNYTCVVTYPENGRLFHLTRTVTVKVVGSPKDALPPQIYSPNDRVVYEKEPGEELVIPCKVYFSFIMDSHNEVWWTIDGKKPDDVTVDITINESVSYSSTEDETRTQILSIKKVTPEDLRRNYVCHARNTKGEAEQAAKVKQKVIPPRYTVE

[2] = biological target: T2, human IL-1RAcP on 293T/17-FR cells (human, UniProt Q9NPH3 21-570); assay: cell-based or functional assay
T2 sequence (looked up): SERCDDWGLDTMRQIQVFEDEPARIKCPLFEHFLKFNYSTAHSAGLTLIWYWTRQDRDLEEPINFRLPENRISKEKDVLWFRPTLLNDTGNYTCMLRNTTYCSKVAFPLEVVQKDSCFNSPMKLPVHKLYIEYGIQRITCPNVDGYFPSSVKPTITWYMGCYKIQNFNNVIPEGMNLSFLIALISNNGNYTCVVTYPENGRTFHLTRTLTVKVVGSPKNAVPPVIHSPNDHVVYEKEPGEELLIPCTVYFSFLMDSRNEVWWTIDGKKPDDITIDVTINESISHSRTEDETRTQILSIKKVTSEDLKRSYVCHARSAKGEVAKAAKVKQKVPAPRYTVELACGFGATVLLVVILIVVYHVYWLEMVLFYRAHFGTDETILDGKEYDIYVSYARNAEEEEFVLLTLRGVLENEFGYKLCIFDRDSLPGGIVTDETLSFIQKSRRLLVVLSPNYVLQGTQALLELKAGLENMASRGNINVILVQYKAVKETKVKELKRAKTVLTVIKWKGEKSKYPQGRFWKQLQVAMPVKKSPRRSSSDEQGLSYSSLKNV

[3] = biological target: T3, rhIL-1RAcP/Fc Chimera (human, UniProt Q9NPH3 21-359); assay: ELISA, primary supernatant, coated hu-IL-1RAcP-Fc
T3 construct: also called P013_03; P013-03
T3 sequence (looked up): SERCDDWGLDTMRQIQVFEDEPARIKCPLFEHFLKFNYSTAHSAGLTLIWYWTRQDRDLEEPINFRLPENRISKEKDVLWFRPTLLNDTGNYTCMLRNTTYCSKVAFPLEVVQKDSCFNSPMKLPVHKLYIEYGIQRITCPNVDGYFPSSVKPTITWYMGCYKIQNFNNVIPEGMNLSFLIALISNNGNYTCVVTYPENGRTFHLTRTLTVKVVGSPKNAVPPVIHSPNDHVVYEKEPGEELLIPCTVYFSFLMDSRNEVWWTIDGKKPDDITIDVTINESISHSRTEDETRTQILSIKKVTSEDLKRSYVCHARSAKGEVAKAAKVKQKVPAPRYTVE
Procedure, shortened: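 Plates coated with 0.5 μg/mL Fc-tagged human IL-1RAcP; rabbit B-cell supernatant antibodies detected by peroxidase anti-rabbit IgG Fab2 and TMB, absorbance 450/620 nm. Parallel IL12Rβ1-Fc coating served as counterscreen to exclude tag binders.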

[4] = biological target: T3, rhIL-1RAcP/Fc Chimera; assay: ELISA, recombinant purified mAb

Binder | mu-IL1RaP ELISA (OD) [1] [OD] | functional reporter gene assay (% inhibition), 0.04 µg/mL mAb [2] [%] | functional reporter gene assay (% inhibition), 0.2 µg/mL mAb [2] [%] | functional reporter gene assay (% inhibition), 1 µg/mL mAb [2] [%] | functional reporter gene assay (% inhibition), 5 µg/mL mAb [2] [%] | primary supernatant functional assay (% inh.), NF-kB luciferase reporter [2] [%] | hu-IL1RaP ELISA (OD) [3] [OD] | EC50 [4] [µg/mL]
B1 | -0.1 | 26 | 37 | 33 | 87 | 95 | 3.4 | 0.359
B2 | 0 | -16 | 42 | 47 | 48 | 80 | 3.6 | 0.362
B3 | -0.1 | 17 | 31 | 78 | 89 | 94 | 3.8 | 0.287
B4 | -0.1 | 9 | 22 | 54 | 79 | 85 | 3.4 | 0.555
B5 | 0 | 21 | 6 | 81 | 96 | 93 | 3.5 | 0.497
B6 | 0 | 1 | 22 | 58 | 79 | 85 | 3.3 | 0.541
